{"source": "paper PMC3196492", "about": "“APOE Genotype-Function Relationship: Evidence of −491 A/T Promoter Polymorphism Modifying Transcription Control but Not Type 2 Diabetes Risk”", "binders": {"B1": {"name": "APOE promoter -491A probe (-521 to -461) (dsDNA)", "DNA 1": "GTTTCACCATGTTGGCCAGGCTGGTCTCAAACTCCTGACCTTAAGTGATTCGCCCACTGTG", "DNA 2": "CACAGTGGGCGAATCACTTAAGGTCAGGAGTTTGAGACCAGCCTGGCCAACATGGTGAAAC"}}, "biological_target": "ATF4 (human (ORF from 293 cells), UniProt P18848 1-351)", "sequence (P18848 whole entry)": "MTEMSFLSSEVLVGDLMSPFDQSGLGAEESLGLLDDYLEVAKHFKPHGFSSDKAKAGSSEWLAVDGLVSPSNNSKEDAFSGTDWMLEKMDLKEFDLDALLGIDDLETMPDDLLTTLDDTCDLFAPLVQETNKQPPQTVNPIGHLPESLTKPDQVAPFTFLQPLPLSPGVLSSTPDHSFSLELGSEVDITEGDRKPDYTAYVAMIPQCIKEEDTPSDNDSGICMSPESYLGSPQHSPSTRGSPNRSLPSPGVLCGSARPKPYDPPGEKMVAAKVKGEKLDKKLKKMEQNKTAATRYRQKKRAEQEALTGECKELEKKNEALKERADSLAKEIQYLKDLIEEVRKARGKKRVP", "assay": "EMSA; 1.2 uM ATF4, 3 nM probe; excess unlabeled probe competes completely; supershift with anti-ATF4 at 0.7 uM ATF4; 20 ul EMSA, 3 nM DIG-labeled probe, Roche kit instructions; buffer, salt, pH and temperature not stated", "details": "protein: recombinant; tags: His-tag; chain copies: 2; label: DIG; blunt"}
{"binder": "B1", "values": [{"measurement": "binding result", "result": "binds"}]}
